Reference: patent EP1728516A1

What was measured:
Assay in all cases: cell-based or functional assay
[1] = biological target: endogenous wild-type PLB of adult rabbit myocytes (rabbit) (UniProt P61015)
[2] = biological target: endogenous wild-type PLB of cardiac myocytes or SR (species not stated at these places) (Rattus norvegicus (Rat)) (UniProt P61016)
[3] = biological target: endogenous wild-type PLB of rat cardiac myocytes (rat) (UniProt P61016)

UniProt P61015, sequence (P61015 whole entry): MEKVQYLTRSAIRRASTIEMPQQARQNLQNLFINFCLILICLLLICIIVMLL

decrease in RT50 against the LacZ control [1]: 25% | increase in +dL/dt against the LacZ control [1]: 115% | increase of fractional shortening against the LacZ control [1]: 74% | decrease in RT50 after plasmid transfection of myocytes [2]: 43% | half-time for decay (RT50) of the indo 1 Ca2+ transient, neonatal myocytes (LacZ: 0.28 seconds) [2]: 0.2 s | half-time for decay (RT50) of the indo 1 Ca2+ transient, percent of LacZ [2]: 73% | lowering of the EC50 of SR Ca2+ uptake, adult rat myocytes [3]: 36%
Substance: PLB double point mutant K3E/R14E
